Measurements from article PMC1079850 (2005).

Molecular target: Tsr (Escherichia coli, UniProt P02942)
Sequence (P02942 whole entry): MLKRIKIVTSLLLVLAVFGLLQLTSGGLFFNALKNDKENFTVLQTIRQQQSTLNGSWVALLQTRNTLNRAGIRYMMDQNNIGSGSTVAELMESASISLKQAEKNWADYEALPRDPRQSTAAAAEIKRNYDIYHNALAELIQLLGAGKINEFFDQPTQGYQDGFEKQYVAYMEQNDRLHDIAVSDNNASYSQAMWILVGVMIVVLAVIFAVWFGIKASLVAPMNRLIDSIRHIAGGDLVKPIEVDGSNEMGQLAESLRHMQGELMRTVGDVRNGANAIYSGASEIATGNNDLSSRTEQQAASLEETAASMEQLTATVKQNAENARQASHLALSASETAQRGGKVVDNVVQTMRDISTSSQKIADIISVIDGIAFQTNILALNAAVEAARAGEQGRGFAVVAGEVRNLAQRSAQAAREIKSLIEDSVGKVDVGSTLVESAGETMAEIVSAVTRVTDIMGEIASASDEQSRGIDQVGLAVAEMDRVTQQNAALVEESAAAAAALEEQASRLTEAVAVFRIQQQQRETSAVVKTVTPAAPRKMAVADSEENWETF

B1: CheW (protein)
chain: MTGMTNVTKLASEPSGQEFLVFTLGDEEYGIDILKVQEIRGYDQVTRIANTPAFIKGVTNLRGVIVPIVDLRIKFSQVDVDYNDNTVVIVLNLGQRVVGIVVDGVSDVLSLTAEQIRPAPEFAVTLSTEYLTGLGALGDRMLILVNIEKLLNSEEMALLDSAASEVA
- Kd: ~10 µM
